Among the data in US20180155451A1 (published 2018) are He/Con_2b and He/Con_3a values, retold here.

In experiment [1] the target is T1, FcγRIIb extracellular domain with C-terminal His tag (human, UniProt P31994 43-217).
T1 construct: extracellular domain; also called 2b; FcgRIIb; not shown: His tag at the C terminus
T1 sequence (looked up): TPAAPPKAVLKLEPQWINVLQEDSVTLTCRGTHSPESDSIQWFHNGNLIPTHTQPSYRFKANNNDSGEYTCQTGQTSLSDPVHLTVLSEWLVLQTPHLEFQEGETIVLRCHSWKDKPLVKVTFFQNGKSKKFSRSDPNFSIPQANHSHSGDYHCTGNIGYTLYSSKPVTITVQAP
The experiment is described as follows: SPR (Biacore), relative binding, GpH7-A5/GpH7-B3/GpL16-k0 = 100.

Experiment [2] addresses T2, FcγRIIIa extracellular domain with C-terminal His tag (human, UniProt P08637 17-208).
T2 construct: extracellular domain; also called 3a; FcgRIIIa; not shown: His tag at the C terminus
The experiment is described as above.

T2 sequence (P08637 17-208): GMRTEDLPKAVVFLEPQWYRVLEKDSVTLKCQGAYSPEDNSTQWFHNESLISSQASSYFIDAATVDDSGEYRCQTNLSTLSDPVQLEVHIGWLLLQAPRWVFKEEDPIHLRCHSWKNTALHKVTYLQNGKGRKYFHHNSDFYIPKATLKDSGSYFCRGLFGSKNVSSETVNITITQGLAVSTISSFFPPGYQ

B1: GpH7-A5/GpH7-B3 variant N325_03V/GpL16-k0 (antibody, human IgG1, kappa)
heavy 1: not shown
heavy 2: not shown
light: DIVMTQSPLSLPVTPGEPASISCQASESLVHSNRNTYLHWYLQKPGQSPQLLIYKVSNRFSGVPDRFSGSGSGTDFTLKISRVEAEDVGVYYCSQNTHVPPTFGQGTKVEIERTVAAPSVFIFPPSDEQLKSGTASVVCLLNNFYPREAKVQWKVDNALQSGNSQESVTEQDSKDSTYSLSSTLTLSKADYEKHKVYACEVTHQGLSSPVTKSFNRGEC
notes: He Ab: mutation in the GpH7-B3 H chain only; also called He Ab
In the case of B1, the He/Con_2b in experiment [1] was 111 % of control. In addition, the He/Con_3a in experiment [2] was 30.3 % of control.

B2: GpH7-A5/GpH7-B3 variant P331_06M/GpL16-k0 (antibody, human IgG1, kappa)
heavy 1: not shown
heavy 2: not shown
light: DIVMTQSPLSLPVTPGEPASISCQASESLVHSNRNTYLHWYLQKPGQSPQLLIYKVSNRFSGVPDRFSGSGSGTDFTLKISRVEAEDVGVYYCSQNTHVPPTFGQGTKVEIERTVAAPSVFIFPPSDEQLKSGTASVVCLLNNFYPREAKVQWKVDNALQSGNSQESVTEQDSKDSTYSLSSTLTLSKADYEKHKVYACEVTHQGLSSPVTKSFNRGEC
notes: as for B1
For B2, the He/Con_2b in experiment [1] was 102 % of control. For the same molecule, in experiment [2], the He/Con_3a was 74.8 % of control.

B3: GpH7-A5/GpH7-B3 variant N325_08L/GpL16-k0 (antibody, human IgG1, kappa)
heavy 1: not shown
heavy 2: not shown
light: DIVMTQSPLSLPVTPGEPASISCQASESLVHSNRNTYLHWYLQKPGQSPQLLIYKVSNRFSGVPDRFSGSGSGTDFTLKISRVEAEDVGVYYCSQNTHVPPTFGQGTKVEIERTVAAPSVFIFPPSDEQLKSGTASVVCLLNNFYPREAKVQWKVDNALQSGNSQESVTEQDSKDSTYSLSSTLTLSKADYEKHKVYACEVTHQGLSSPVTKSFNRGEC
notes: as for B1
On to B3, for which the He/Con_2b in experiment [1] is 197 % of control. Moreover, the He/Con_3a in experiment [2] was 33.3 % of control.

B4: GpH7-A5/GpH7-B3 variant N325_07I/GpL16-k0 (antibody, human IgG1, kappa)
heavy 1: not shown
heavy 2: not shown
light: DIVMTQSPLSLPVTPGEPASISCQASESLVHSNRNTYLHWYLQKPGQSPQLLIYKVSNRFSGVPDRFSGSGSGTDFTLKISRVEAEDVGVYYCSQNTHVPPTFGQGTKVEIERTVAAPSVFIFPPSDEQLKSGTASVVCLLNNFYPREAKVQWKVDNALQSGNSQESVTEQDSKDSTYSLSSTLTLSKADYEKHKVYACEVTHQGLSSPVTKSFNRGEC
notes: as for B1
For B4, the He/Con_2b in experiment [1] was 171 % of control. Besides, the He/Con_3a in experiment [2] was 28.7 % of control.

B5: GpH7-A5/GpH7-B3 variant P331_10E/GpL16-k0 (antibody, human IgG1, kappa)
heavy 1: not shown
heavy 2: not shown
light: DIVMTQSPLSLPVTPGEPASISCQASESLVHSNRNTYLHWYLQKPGQSPQLLIYKVSNRFSGVPDRFSGSGSGTDFTLKISRVEAEDVGVYYCSQNTHVPPTFGQGTKVEIERTVAAPSVFIFPPSDEQLKSGTASVVCLLNNFYPREAKVQWKVDNALQSGNSQESVTEQDSKDSTYSLSSTLTLSKADYEKHKVYACEVTHQGLSSPVTKSFNRGEC
notes: as for B1
In the case of B5, the He/Con_2b in experiment [1] was 116 % of control. The He/Con_3a in experiment [2] was 75.1 % of control.

B6: GpH7-A5/GpH7-B3 variant N325_13S/GpL16-k0 (antibody, human IgG1, kappa)
heavy 1: not shown
heavy 2: not shown
light: DIVMTQSPLSLPVTPGEPASISCQASESLVHSNRNTYLHWYLQKPGQSPQLLIYKVSNRFSGVPDRFSGSGSGTDFTLKISRVEAEDVGVYYCSQNTHVPPTFGQGTKVEIERTVAAPSVFIFPPSDEQLKSGTASVVCLLNNFYPREAKVQWKVDNALQSGNSQESVTEQDSKDSTYSLSSTLTLSKADYEKHKVYACEVTHQGLSSPVTKSFNRGEC
notes: as for B1
On to B6, for which the He/Con_2b in experiment [1] is 177 % of control. Further, in experiment [2], the He/Con_3a was 65.1 % of control.

B7: GpH7-A5/GpH7-B3 variant P331_07I/GpL16-k0 (antibody, human IgG1, kappa)
heavy 1: not shown
heavy 2: not shown
light: DIVMTQSPLSLPVTPGEPASISCQASESLVHSNRNTYLHWYLQKPGQSPQLLIYKVSNRFSGVPDRFSGSGSGTDFTLKISRVEAEDVGVYYCSQNTHVPPTFGQGTKVEIERTVAAPSVFIFPPSDEQLKSGTASVVCLLNNFYPREAKVQWKVDNALQSGNSQESVTEQDSKDSTYSLSSTLTLSKADYEKHKVYACEVTHQGLSSPVTKSFNRGEC
notes: as for B1
Take B7: the He/Con_2b in experiment [1] is 114 % of control. The He/Con_3a in experiment [2] is 66 % of control.

B8: GpH7-A5/GpH7-B3 variant N325_20W/GpL16-k0 (antibody, human IgG1, kappa)
heavy 1: not shown
heavy 2: not shown
light: DIVMTQSPLSLPVTPGEPASISCQASESLVHSNRNTYLHWYLQKPGQSPQLLIYKVSNRFSGVPDRFSGSGSGTDFTLKISRVEAEDVGVYYCSQNTHVPPTFGQGTKVEIERTVAAPSVFIFPPSDEQLKSGTASVVCLLNNFYPREAKVQWKVDNALQSGNSQESVTEQDSKDSTYSLSSTLTLSKADYEKHKVYACEVTHQGLSSPVTKSFNRGEC
notes: as for B1
As to B8, in experiment [1], the He/Con_2b was 169 % of control. Besides, in experiment [2], the He/Con_3a is 32.8 % of control.

B9: GpH7-A5/GpH7-B3 variant P331_04F/GpL16-k0 (antibody, human IgG1, kappa)
heavy 1: not shown
heavy 2: not shown
light: DIVMTQSPLSLPVTPGEPASISCQASESLVHSNRNTYLHWYLQKPGQSPQLLIYKVSNRFSGVPDRFSGSGSGTDFTLKISRVEAEDVGVYYCSQNTHVPPTFGQGTKVEIERTVAAPSVFIFPPSDEQLKSGTASVVCLLNNFYPREAKVQWKVDNALQSGNSQESVTEQDSKDSTYSLSSTLTLSKADYEKHKVYACEVTHQGLSSPVTKSFNRGEC
notes: as for B1
For the molecule B9, the He/Con_2b in experiment [1] was 110 % of control. In addition, the He/Con_3a in experiment [2] was 77.3 % of control.

B10: GpH7-A5/GpH7-B3 variant P331_15Y/GpL16-k0 (antibody, human IgG1, kappa)
heavy 1: not shown
heavy 2: not shown
light: DIVMTQSPLSLPVTPGEPASISCQASESLVHSNRNTYLHWYLQKPGQSPQLLIYKVSNRFSGVPDRFSGSGSGTDFTLKISRVEAEDVGVYYCSQNTHVPPTFGQGTKVEIERTVAAPSVFIFPPSDEQLKSGTASVVCLLNNFYPREAKVQWKVDNALQSGNSQESVTEQDSKDSTYSLSSTLTLSKADYEKHKVYACEVTHQGLSSPVTKSFNRGEC
notes: as for B1
On to B10, for which the He/Con_2b in experiment [1] was 114 % of control. The He/Con_3a in experiment [2] was 81.9 % of control.

B11: GpH7-A5/GpH7-B3 variant N325_09D/GpL16-k0 (antibody, human IgG1, kappa)
heavy 1: not shown
heavy 2: not shown
light: DIVMTQSPLSLPVTPGEPASISCQASESLVHSNRNTYLHWYLQKPGQSPQLLIYKVSNRFSGVPDRFSGSGSGTDFTLKISRVEAEDVGVYYCSQNTHVPPTFGQGTKVEIERTVAAPSVFIFPPSDEQLKSGTASVVCLLNNFYPREAKVQWKVDNALQSGNSQESVTEQDSKDSTYSLSSTLTLSKADYEKHKVYACEVTHQGLSSPVTKSFNRGEC
notes: as for B1
As to B11, in experiment [1], the He/Con_2b was 124 % of control. In addition, the He/Con_3a in experiment [2] is 48 % of control.

B12: GpH7-A5/GpH7-B3 variant N325_04F/GpL16-k0 (antibody, human IgG1, kappa)
heavy 1: not shown
heavy 2: not shown
light: DIVMTQSPLSLPVTPGEPASISCQASESLVHSNRNTYLHWYLQKPGQSPQLLIYKVSNRFSGVPDRFSGSGSGTDFTLKISRVEAEDVGVYYCSQNTHVPPTFGQGTKVEIERTVAAPSVFIFPPSDEQLKSGTASVVCLLNNFYPREAKVQWKVDNALQSGNSQESVTEQDSKDSTYSLSSTLTLSKADYEKHKVYACEVTHQGLSSPVTKSFNRGEC
notes: as for B1
As for B12, the He/Con_2b in experiment [1] was 143 % of control. For the same molecule, the He/Con_3a in experiment [2] was 20.7 % of control.

B13: GpH7-A5/GpH7-B3 variant N325_06M/GpL16-k0 (antibody, human IgG1, kappa)
heavy 1: not shown
heavy 2: not shown
light: DIVMTQSPLSLPVTPGEPASISCQASESLVHSNRNTYLHWYLQKPGQSPQLLIYKVSNRFSGVPDRFSGSGSGTDFTLKISRVEAEDVGVYYCSQNTHVPPTFGQGTKVEIERTVAAPSVFIFPPSDEQLKSGTASVVCLLNNFYPREAKVQWKVDNALQSGNSQESVTEQDSKDSTYSLSSTLTLSKADYEKHKVYACEVTHQGLSSPVTKSFNRGEC
notes: as for B1
On to B13, for which the He/Con_2b in experiment [1] is 217 % of control. Further, the He/Con_3a in experiment [2] was 31.4 % of control.

B14: GpH7-A5/GpH7-B3 variant P331_03V/GpL16-k0 (antibody, human IgG1, kappa)
heavy 1: not shown
heavy 2: not shown
light: DIVMTQSPLSLPVTPGEPASISCQASESLVHSNRNTYLHWYLQKPGQSPQLLIYKVSNRFSGVPDRFSGSGSGTDFTLKISRVEAEDVGVYYCSQNTHVPPTFGQGTKVEIERTVAAPSVFIFPPSDEQLKSGTASVVCLLNNFYPREAKVQWKVDNALQSGNSQESVTEQDSKDSTYSLSSTLTLSKADYEKHKVYACEVTHQGLSSPVTKSFNRGEC
notes: as for B1
In the case of B14, the He/Con_2b in experiment [1] was 119 % of control. In addition, the He/Con_3a in experiment [2] is 73.2 % of control.
